According to US20120231065A1:

Target: GCSF receptor (rat, endogenous, on neurons / in cortex tissue) (rat) (UniProt D4A3R0)
Assay: cell-based or functional assay

Chain of UniProt D4A3R0 (D4A3R0 entry or part of it limits assumed, form in doubt): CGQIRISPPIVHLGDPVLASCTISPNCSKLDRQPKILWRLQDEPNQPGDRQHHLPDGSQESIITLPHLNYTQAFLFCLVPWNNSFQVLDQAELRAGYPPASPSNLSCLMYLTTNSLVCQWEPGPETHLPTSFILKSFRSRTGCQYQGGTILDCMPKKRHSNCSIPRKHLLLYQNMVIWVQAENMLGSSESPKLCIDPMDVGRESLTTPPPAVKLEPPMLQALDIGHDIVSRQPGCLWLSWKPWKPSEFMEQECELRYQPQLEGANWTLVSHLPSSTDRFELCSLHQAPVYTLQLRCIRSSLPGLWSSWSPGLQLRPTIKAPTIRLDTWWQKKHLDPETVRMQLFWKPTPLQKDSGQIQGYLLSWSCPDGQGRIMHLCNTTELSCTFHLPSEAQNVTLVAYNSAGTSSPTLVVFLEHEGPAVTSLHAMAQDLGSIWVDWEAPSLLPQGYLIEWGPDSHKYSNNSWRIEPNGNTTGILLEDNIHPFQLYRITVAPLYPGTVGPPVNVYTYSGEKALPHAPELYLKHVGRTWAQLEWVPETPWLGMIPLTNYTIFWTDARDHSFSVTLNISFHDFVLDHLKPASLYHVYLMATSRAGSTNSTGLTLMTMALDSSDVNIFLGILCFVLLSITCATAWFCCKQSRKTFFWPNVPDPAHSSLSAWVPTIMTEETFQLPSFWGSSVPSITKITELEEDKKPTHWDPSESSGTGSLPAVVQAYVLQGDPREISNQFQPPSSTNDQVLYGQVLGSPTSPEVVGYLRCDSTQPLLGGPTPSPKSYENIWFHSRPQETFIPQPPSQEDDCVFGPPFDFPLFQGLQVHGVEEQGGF

STAT3 nuclear translocation in neurons of the penumbra, percent of STAT3 positive neurons from all neurons (GCSF treated rats versus untreated controls) (percent of STAT3 positive neurons): 34.4
Substance: recombinant human GCSF, Neupogen (Amgen) (from UniProt P09919 31-207) (ligand)
